# Laboratory results taken from publication PMC4433741.
# pKd: −log10 of the molar value.
# Experiments:
# Assay in all cases: SPR
# [1] = biological target: neonatal Fc receptor (FcRn), soluble, His-tagged (UniProt P55899); settings: pH 6.0; Running buffer not stated; Table 1 labels the measurement pH 6.0
# [2] = biological target: human FcγRIIIa, His-tagged (human) (UniProt P08637)
# [3] = biological target: human neonatal Fc receptor (FcRn), His-tagged (human) (UniProt P55899)
# Chain of UniProt P08637 (P08637 17-208): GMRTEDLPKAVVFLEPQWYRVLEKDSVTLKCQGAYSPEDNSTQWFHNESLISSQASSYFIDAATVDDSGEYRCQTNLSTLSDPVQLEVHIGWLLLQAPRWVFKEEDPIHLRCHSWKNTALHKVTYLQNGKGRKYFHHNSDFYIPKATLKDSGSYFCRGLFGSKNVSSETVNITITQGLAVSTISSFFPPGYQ
Kon [1] [M⁻¹ s⁻¹],koff [1] [s⁻¹],pKd [2],koff [2] [s⁻¹],koff [3] [s⁻¹],kon [3] [M⁻¹ s⁻¹],Substance
94000,0.279,,,,,VRC01 (wild-type Fc) IgG1
,,5.35,0.187,,,VRC01-IHH (non-FcRn-binding mutant) (antibody)
,,5.89,0.105,,,VRC01 (the wild type) (antibody)
,,6.00,0.1,0.0558,223000,VRC01-LS (antibody)
